Publication PMC8069203, “Highly Sensitive Electrochemical Aptasensor for Detecting the VEGF165 Tumor Marker with PANI/CNT Nanocomposites”

Target: VEGF165 (UniProt P15692-4 27-191)
Test: electrochemical aptasensor; PANI/CNT electrode; linear 0.5 pg/mL to 1 ug/mL, LOD 0.4 pg/mL (not a Kd); PBS rinsing, ferri/ferrocyanide redox probe; aptamer immobilized on PANI/CNT screen-printed carbon electrode; pH, salt and temperature not given in the material
Conditions: protein: commercial; chain copies: 2

Chain of VEGF165 (P15692 other isoform, or with tags, fused parts or gaps): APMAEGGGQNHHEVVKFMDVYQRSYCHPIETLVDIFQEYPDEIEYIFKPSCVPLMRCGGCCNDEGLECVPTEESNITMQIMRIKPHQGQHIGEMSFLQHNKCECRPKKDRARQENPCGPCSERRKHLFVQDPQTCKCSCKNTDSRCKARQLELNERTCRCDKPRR

B1: anti-VEGF165 RNA aptamer (structured_RNA)
RNA: AUGCAGUUUGAGAAGUCGCGCAU
modifications: 5'-NH2, coupled by amide bond to PANI/CNT carboxyl groups (DMT-MM)
binding result: binds
